This assay has as its target CD28 on the surface of T cells and PBMCs (human) (UniProt P10747). As to the kind of experiment: flow cytometry of live CD3+ cells of the CD28 positive fraction after D-biotin and washing; remaining anti-CD28 Fab monomers were detected with an antibody against the Ig kappa light chain. The same antibody on cells before selection (negative control, no Fab) gives 2.73. In general terms: In flow cytometry, cells or beads pass a laser one at a time.

With “αCD28 Fab fragment derived from the monoclonal anti-human CD28 antibody CD28.3, heavy chain carboxy-terminally fused to the Twin-Strep-tag (monomeric)”, the % of cells within gate is 5.91%.
